{"source": "patent US8143228B2", "about": "“Agents capable of downregulating an MSF-A dependent HIF-1α and use thereof in cancer treatment” (Medical Research Fund of Tel Aviv Sourasky Medical Center, priority 2004, dated 2012)", "molecules": {"B1": {"name": "MSF-A: myeloid/lymphoid leukemia septin-like fusion protein A (SEQ ID NO:3), over-expressed from the p3xFlag-MSF-A vector (protein, listed as Homo sapiens)", "chain": "MKKSYSGGTRTSSGRLRRLGDSSGPALKRSFEVEEVETPNSTPPRRVQTPLLRATVASSTQKFQDLGVKNSEPSARHVDSLSQRSPKASLRRVELSGPKAAEPVSRRTELSIDISSKQVENAGAIGPSRFGLKRAEVLGHKTPEPAPRRTEITIVKPQESAHRRMEPPASKVPEVPTAPATDAAPKRVEIQMPKPAEAPTAPSPAQTLENSEPAPVSQLQSRLEPKPQPPVAEATPRSQEATEAAPSCVGDMADTPRDAGLKQAPASRNEKAPVDFGYVGIDSILEQMRRKAMKQGFEFNIMVVGQSGLGKSTLINTLFKSKISRKSVQPTSEERIPKTIEIKSITHDIEEKGVRMKLTVIDTPGFGDHINNENCWQPIMKFINDQYEKYLQEEVNINRKKRIPDTRVHCCLYFIPATGHSLRPLDIEFMKRLSKVVNIVPVIAKADTLTLEERVHFKQRITADLLSNGIDVYPQKEFDEDSEDRLVNEKFREMIPFAVVGSDHEYQVNGKRILGRKTKWGTIEVENTTHCEFAYLRDLLIRTHMQNIKDITSSIHFEAYRVKRLNEGSSAMANGVEEKEPEAPEM", "modifications": "3xFlag tag"}}, "type_in_all_cases": "cell-based", "key": {"[1]": {"test_system": "HIF-1α transcriptional activity", "assay": "HRE-dependent luciferase reporter gene assay in HEK 293 cells", "details": "transient transfection, hypoxia, compared with empty vector", "method": "FIG. 7 is a graph depicting luciferase activity (a reporter of HIF-1α transcriptional activation) as a function of the presence or absence of the N-terminus of the MSF-A protein. HEK 293 cells were co-transfected with 0.1 μg HRE-dependent luciferase reporter [pBI-GL V6L (Post, D. E., and Van Meir, E. G. 2001. Generation of bidirectional hypoxia/HIF-responsive expression vectors to target gene expression to hypoxic cells. Gene Ther 8, 1801-1807. Mabjeesh, N. J., et al., 2002, Geldanamycin induces degradation of hypoxia-inducible factor 1 alpha protein via the proteasome pathway in prostate cancer cells. Cancer Res 62, 2478-2482) and the wild type (WT) MSF-A (p3xFlag-MSF-A), ΔN-MSF-A (ΔN) (p3xFlag-ΔN-MSF-A) or empty vector (EV) (p3xFlag-cmv-25) constructs as follows: Experiment (Exp.) No. 1=1 μg EV; Exp. No. 2=0.5 μg EV and 0.5 μg WT; Exp. No. 3-1 μg WT; Exp. No. 4=0.5 μg EV and 0.5 μg ΔN; Exp. No. 5=1 μg ΔN. After 24 hours of transfection, cells were subjected to normoxia or hypoxia for overnight and then analyzed for luciferase luminescence assay. Luciferase activity is presented as relative units per μg protein in each experiment. Columns represent means; bars represent SD; n=3; *, p<0.05 compared to hypoxia of EV. Note the significant decrease of luciferase activity in cells grown under hypoxia and transfected with the N-terminus truncated form (ΔN) of MSF-A as compared with cells transfected with the wild-type form of MSF-A. Also note that under normoxia, when the luciferase activity is hardly detected, no significant difference is obtained.\nFIG. 8 is a graph depicting luciferase activity (a reporter of HIF-1α transcriptional activation) as a function of the presence or absence of the GTP binding site of MSF-A (ΔG). HEK 293 cells were cotransfected with HRE-dependent luciferase reporter and the expression vector encoding wild-type MSF-A (WT) (p3xFlag-MSF-A), the deleted GTP binding site form of MSF-A (ΔG) (p3xFlag-ΔG-MSF-A) or empty vector (EV) (p3xFlag-cmv-25) and then were exposed to hypoxia conditions as described in the description of FIG. 4, hereinabove. Luciferase activity is presented as relative units per μg protein in each experiment. Columns represent means; bars represent SD; n=3. Note the non-significant effect of the ΔG-MSF-A on HIF-1α activity.\nReporter gene assay and luminescence measurements—HRE-dependent luciferase activity was performed using the pBI-GL construct (pBI-GL V6L) containing six tandem copies of the VEGF hypoxia response element as previously described (Mabjeesh et al., 2002; Post and Van Meir, 2001). […] Luciferase enzymatic activity was measured using the commercial kit TROPIX (Bedford, Mass.) in the Galaxy luminometer (BMG Labtechnologies LUMIstar) following the manufacturer's instructions. […]"}, "[2]": {"test_system": "HIF-1 transcriptional activity", "assay": "HRE-dependent luciferase reporter gene assay in PC-3 cells", "details": "pooled PC-3-MSF-A vs PC-3-Neo cells", "method": "Reporter gene assay and luminescence measurements—HRE-dependent luciferase activity was performed using the pBI-GL construct (pBI-GL V6L) containing six tandem copies of the VEGF hypoxia response element as previously described (Mabjeesh et al., 2002; Post and Van Meir, 2001). Cells were grown in 6-well plates and then transiently transfected in triplicate with a total of 1 μg DNA including 0.1 μg of the reporter plasmid, pBI-GL V6L. Duplicate sets of transfected cell-culture plates were then separated and incubated for 16 hours under either normoxic or hypoxic conditions. Luciferase enzymatic activity was measured using the commercial kit TROPIX (Bedford, Mass.) in the Galaxy luminometer (BMG Labtechnologies LUMIstar) following the manufacturer's instructions. Arbitrary Luciferase activity units were normalized to the amount of protein in each assay point.\nTo investigate the effect of MSF-A binding on HIF-1α function, the transcriptional activity of the HIF-1 complex was determined using a reporter gene assay as previously described (Mabjeesh N J et al. 2ME2 inhibits tumor growth and angiogenesis by disrupting microtubules and dysregulating HIF. Cancer Cell 2003; 3: 363-375). […]"}, "[3]": {"test_system": "PC-3 cells", "assay": "Cell proliferation assay with XTT reagent", "details": "PC-3-MSF-A vs PC-3-Neo cells, normoxia and hypoxia", "method": "FIG. 13 is a graph depicting the effect of MSF-A over-expression on cell proliferation. PC-3-Neo and PC-3-MSF-A cells were grown under normoxic and hypoxic conditions for the indicated time and then analyzed for proliferation using XTT assay. Proliferation was expressed as increase in % of the initial O.D. measured on the next day of seeding which was considered 100%. Growth media were not changed until the end of the experiment.\nCell proliferation assay with XTT reagent—For cell proliferation assay, PC-3-Neo and PC-3-MSF-A cells were seeded in 96 well-plates (1000 cells/well in 200 μLI) using a 3-bis-(2-methoxy-4-nitro-5 sulfenyl)-(2H)-tetrazolium-5-carboxanilide (XTT) kit (Biological Industries Ltd. Kibbutz Beit Haemek, Israel). Wells filled with media served as a control. On the next day, the cells were cultured either under normoxic or hypoxic conditions. XTT reagent was added at days 0, 2, 4 and 6 following the manufacturer's instructions. The absorbance of the samples was measured using a microplate reader at a wavelength of 450 nm using Elisa reader 680 (Bio-rad, Hercules, Calif.). All experiments were performed in triplicate."}, "[4]": {"test_system": "PC-3 cells", "assay": "Plating efficiency assay", "details": "PC-3-MSF-A cells; PC-3-Neo 16.8%, p<0.001", "method": "Plating Efficiency assay—PC-3-Neo and PC-3-MSF-A cells were cultured in 100 mm-diameter plate (1000 cells/plate) and incubated to allow colony formation. The cultures were monitored on a daily basis and when colonies were visible (approximately after 2 weeks) cells were fixed and stained with 90% EtOH, 5% Acetic acid, 0.01% Coomassie brilliant blue (Sigma-Aldrich, Saint Louis, Mo.). Plating was done in triplicates. Colonies containing ≧20 cells were counted. Plating efficiency (%) was calculated as number of colonies formed/number of cells plated×100."}}, "data": [{"molecule": "B1", "values": [{"measurement": "HIF-1α transcriptional activity (luciferase reporter)", "setting": "[1]", "result": "induced HIF-1α activity"}, {"measurement": "HIF-1 transcriptional activity (luciferase assay), stable transfectants", "setting": "[2]", "result": "significant increase"}, {"measurement": "proliferation rate (XTT)", "setting": "[3]", "result": "higher"}, {"measurement": "plating efficiency", "setting": "[4]", "result": 49.3, "unit": "%"}]}]}
